Measurements published in patent US20250136695A1 (PERSONGEN BIOTHERAPEUTICS SUZHOU, published 2025).

Columns and labels:
[1] = target: T1, PDL1 expressed on recombinant CHO cells (CHO-K1/PDL1; aAPC CHO-PDL1) (UniProt Q9NZQ7 19-290, limits assumed); test: cell-based or functional assay
[2] = target: T1, PDL1 expressed on recombinant CHO cells …; test: cell-based or functional assay; remark: listed apart in the source
[3] = target: T1, PDL1 expressed on recombinant CHO cells …; test: cell-based or functional assay; remark: listed apart in the source
[4] = target: T2, PDL1-His (UniProt Q9NZQ7 19-238, limits assumed); test: BLI (OCTET R2), Fc-tagged antibody on protein A probes, PDL1-His as mobile phase
T2 construct: not shown: His tag
T2 sequence (Q9NZQ7 19-238 limits assumed): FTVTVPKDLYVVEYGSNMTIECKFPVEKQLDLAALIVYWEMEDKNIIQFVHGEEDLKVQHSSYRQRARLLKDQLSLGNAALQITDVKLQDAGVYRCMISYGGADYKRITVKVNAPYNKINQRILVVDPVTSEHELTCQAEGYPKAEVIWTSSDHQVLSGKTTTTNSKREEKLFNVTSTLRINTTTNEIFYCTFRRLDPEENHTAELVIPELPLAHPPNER

T1 sequence (Q9NZQ7 19-290 limits assumed): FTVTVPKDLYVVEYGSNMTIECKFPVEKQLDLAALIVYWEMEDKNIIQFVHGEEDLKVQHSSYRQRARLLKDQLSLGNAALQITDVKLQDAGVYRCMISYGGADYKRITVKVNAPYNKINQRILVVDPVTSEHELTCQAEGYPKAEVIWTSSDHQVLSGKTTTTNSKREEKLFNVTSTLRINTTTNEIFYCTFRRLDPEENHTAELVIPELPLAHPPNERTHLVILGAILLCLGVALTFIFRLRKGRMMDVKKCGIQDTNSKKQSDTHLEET

Binder	EC50 of PD-1/PDL1 blocking against Nivolumab ([…] µg/mL), same reporter assay [1] [µg/mL]	EC50 of the PD1/PDL1 Block Assay (luciferase fold of induction, Jurkat-PD1-NFAT-Luc + aAPC CHO-PDL1); printed as 03-29-H9; the table gives no unit, the axis is in µg/mL [2] [µg/mL]	EC50 of the PD1/PDL1 Block Assay (luciferase fold of induction, Jurkat-PD-1-NFAT-Luc + aAPC CHO-PDL1) [3] [µg/mL]	Kd [4] [nM]	koff [4] [s⁻¹]	kon [4] [M⁻¹ s⁻¹]	EC50 of the PD1/PDL1 Block Assay (luciferase fold of induction, Jurkat-PD1-NFAT-Luc + aAPC CHO-PDL1); printed as 03-17-A06; the table gives no unit, the axis is in µg/mL [2] [µg/mL]	EC50 of the PD1/PDL1 Block Assay (luciferase fold of induction, Jurkat-PD1-NFAT-Luc + aAPC CHO-PDL1); printed as 03-23-G3; the table gives no unit, the axis is in µg/mL [2] [µg/mL]
29-H9 (VHH fused to human IgG1 Fc) (Fc fusion, not shown: a dimerising Fc or GST) RLQLVESGGGLVQAGGSLRLSCAASGFTFSTYAMSWYRGVPEKERELVAFISSDGGGTTYRDSVKGRFTISRDNGKNTVYLQMNSLKPEDTGVYYCARGLAQIWGQGTQVTVSS	> 0.322	1.44						
17-A06-G4S-29-H9 (Fc fusion, also called bivalent antibody 17-A06-G4S-29-H9; bivalent PDL1 antibody; not shown: Fc tag ('Fc-tagged')) MAQVKLEESGGGLVQAGGSLRLSCVASGRSFITYAVGWFRQAPGKEREFVASINWSGAMTYYTDSVNGRFAISRDNAKNTVYLQMNNLKLEDTAVYYCASTISAVTPTNGYQNWGQGTQVTVSSGGGGSRLQLVESGGGLVQAGGSLRLSCAASGFTFSTYAMSWYRGVPEKERELVAFISSDGGGTTYRDSVKGRFTISRDNGKNTVYLQMNSLKPEDTGVYYCARGLAQIWGQGTQVTVSS			1.35	2.73	0.00048	176000		
23-G3-G4S-29-H9 (Fc fusion, also called bivalent antibody 23-G3-G4S-29-H9; bivalent PDL1 antibody; not shown: Fc tag ('Fc-tagged')) MAAVQLVESGGGLVQAGGSLRLSCVASGRSFITYAVGWFRQAPGKEREFVASVNWSGAMTYYADAVNGRFTISRDNAKNTVYLQMNNLKLEDTAVYYCAATISAVTPTNGYQNWGQGTQVTVSSGGGGSRLQLVESGGGLVQAGGSLRLSCAASGFTFSTYAMSWYRGVPEKERELVAFISSDGGGTTYRDSVKGRFTISRDNGKNTVYLQMNSLKPEDTGVYYCARGLAQIWGQGTQVTVSS				1.92	0.000455	238000		
17-A06-G4S-23-G3 (Fc fusion, also called bivalent antibody 17-A06-G4S-23-G3; bivalent PDL1 antibody; not shown: Fc tag ('Fc-tagged')) MAQVKLEESGGGLVQAGGSLRLSCVASGRSFITYAVGWFRQAPGKEREFVASINWSGAMTYYTDSVNGRFAISRDNAKNTVYLQMNNLKLEDTAVYYCASTISAVTPTNGYQNWGQGTQVTVSSGGGGSMAAVQLVESGGGLVQAGGSLRLSCVASGRSFITYAVGWFRQAPGKEREFVASVNWSGAMTYYADAVNGRFTISRDNAKNTVYLQMNNLKLEDTAVYYCAATISAVTPTNGYQNWGQGTQVTVSS			2.06	4.2	0.000649	155000		
17-A06 (VHH fused to human IgG1 Fc) (Fc fusion, not shown: a dimerising Fc or GST) MAQVKLEESGGGLVQAGGSLRLSCVASGRSFITYAVGWFRQAPGKEREFVASINWSGAMTYYTDSVNGRFAISRDNAKNTVYLQMNNLKLEDTAVYYCASTISAVTPTNGYQNWGQGTQVTVSS	> 0.322						1.96	
23-G3 (VHH fused to human IgG1 Fc) (Fc fusion, not shown: a dimerising Fc or GST) MAAVQLVESGGGLVQAGGSLRLSCVASGRSFITYAVGWFRQAPGKEREFVASVNWSGAMTYYADAVNGRFTISRDNAKNTVYLQMNNLKLEDTAVYYCAATISAVTPTNGYQNWGQGTQVTVSS	> 0.322							3.45
